Data: the supplement of paper PMC9732359
± gives the uncertainty stated by the source.

Test: protein stability index of a GFP-peptide fusion (yeast GPS) (PSI 1-4); higher = more stable; sorted into four equal gates, so the index is relative within each strain
Conditions: pdr5∆
Method in brief: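 Tiled 17-residue yeast protein peptides were fused downstream of GFP in a plasmid that also expresses Cherry, and the pooled library was carried in yeast. Mid-log cultures in leucine-free medium were sorted into four equal gates by GFP/Cherry fluorescence ratio, and plasmids from each gate were PCR-amplified and Illumina-sequenced, with reads assigned to strains by barcodes. The protein stability index for each peptide was each gate's read frequency times its gate number, summed.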

Question: For LDLANSGDESNVISSKD [YDL116W/NUP84], which protein stability index is on record?
Answer: 3.31 ± 0.067

Question: For LDLIPHSSSVFKGTDFV [SRB4], which protein stability index is on record?
Answer: 2.74 ± 0.057

Question: Which protein stability index does the source give for LDMELAELDPSLRTPIA [SEC65] here?
Answer: 3.26 ± 0.092

Question: With LDNFETKTEALLSDVVS [YJL041W/NSP1] as the sequence, how does the protein stability index read?
Answer: 2.72 ± 0.069

Question: Which protein stability index does the source give for LDPNLITLALSSNPNSS [SRB4] here?
Answer: 2.86 ± 0.095

Question: With LDPTDDEGHVLKLENLH [SIN4] as the sequence, how does the protein stability index read?
Answer: 3.16 ± 0.23

Question: For LDQTKDTRITHLLRQTN [SNF2], which protein stability index is on record?
Answer: 1.41 ± 0.034

Question: Which protein stability index does the source give for LDSDSENDLSFALMRYY [RRI2] here?
Answer: 2.89 ± 0.063

Question: Which protein stability index does the source give for LEDGDVVLFNRQPSLHR [RPO31] here?
Answer: 2.67 ± 0.062

Question: Which protein stability index does the source give for LEDKLRAVLTPLITRHC [RRP46] here?
Answer: 2.2 ± 0.05

Question: With LEERFDPKSPTKRSIAI [YMR129W/POM152] as the sequence, how does the protein stability index read?
Answer: 3.14 ± 0.055

Question: For LEETRTTIGDTTDKNTT [BRN1], which protein stability index is on record?
Answer: 3.27 ± 0.059

Question: For LEFSIYHRLSNKDMIKN [CSN12], which protein stability index is on record?
Answer: 2.91 ± 0.13

Question: Which protein stability index does the source give for LEGKGSLEEIIAEGQKK [RPP2B] here?
Answer: 2.17 ± 0.072

Question: Which protein stability index does the source give for LEHIDSKSEFAHRIMLT [FAS2] here?
Answer: 2.19 ± 0.069

Question: With LEHPYGKEVEVLMETKN [SNU114] as the sequence, how does the protein stability index read?
Answer: 2.98 ± 0.068

Question: For LEIVYGYALRDVQARRQ [RPP1], which protein stability index is on record?
Answer: 1.92 ± 0.11

Question: With LEKGNNPSVKQGEVGAV [SWP82] as the sequence, how does the protein stability index read?
Answer: 3.13 ± 0.083

Question: Which protein stability index does the source give for LEKKFPDRHVIFLAERR [RPS7B] here?
Answer: 2.87 ± 0.058

Question: For LEKKFQDRHVIFLAERR [RPS7A], which protein stability index is on record?
Answer: 2.9 ± 0.12

Question: With LEPDYQAPFSTSTKDKN [MED1] as the sequence, how does the protein stability index read?
Answer: 3 ± 0.08

Question: Which protein stability index does the source give for LERRELEGTRVSLEERT [SMC4] here?
Answer: 3.35 ± 0.082

Question: With LERVKRIMEKSVILSVI [YML031W/NDC1] as the sequence, how does the protein stability index read?
Answer: 2.17 ± 0.094

Question: Which protein stability index does the source give for LESVGIEIEDEKVSSVL [RPP2A] here?
Answer: 2.67 ± 0.12

Question: Which protein stability index does the source give for LEVGKNNFCALYNLSNP [RPN14] here?
Answer: 1.2 ± 0.14

Question: For LEVVQYIEDGRNPDIYT [NUT2], which protein stability index is on record?
Answer: 3.25 ± 0.049

Question: Which protein stability index does the source give for LEYWCNPPYSQCIVYPN [SOH1] here?
Answer: 2.27 ± 0.045

Question: For LFDEFGNLIGVDPFDSD [SNU114], which protein stability index is on record?
Answer: 3.04 ± 0.069

Question: With LFEIYRDLGDDRVFNVP [YJR042W/NUP85] as the sequence, how does the protein stability index read?
Answer: 3.2 ± 0.1

Question: With LFEVNPSQTLFSISYKP [SRP21] as the sequence, how does the protein stability index read?
Answer: 2.84 ± 0.077

Question: For LFGNNAGNTTTGGGLFG [YGL172W/NUP49], which protein stability index is on record?
Answer: 3.37 ± 0.25

Question: For LFKPLNKTLTLDLKECY [ARP7], which protein stability index is on record?
Answer: 2.14 ± 0.068

Question: For LFLEPSWSSSAAVIMRC [PCI8], which protein stability index is on record?
Answer: 2.07 ± 0.093

Question: With LFLNTGCLSVLYQSKGR [SRP68] as the sequence, how does the protein stability index read?
Answer: 1.55 ± 0.069

Question: Which protein stability index does the source give for LFQENDDDDDDDDEVDY [DSN1] here?
Answer: 2.71 ± 0.1

Question: For LFVGTDRQLHEISTSKK [RPN14], which protein stability index is on record?
Answer: 2.91 ± 0.076

Question: Which protein stability index does the source give for LGASFGQQQQQSQTNAF [YGL172W/NUP49] here?
Answer: 2.75 ± 0.075

Question: Which protein stability index does the source give for LGEIPNPMKKHKPNEGR [SIR4] here?
Answer: 2.55 ± 0.086

Question: Which protein stability index does the source give for LGFVLLRDYTTVPRIVQ [RPN2] here?
Answer: 1.66 ± 0.053

Question: For LGKLQDVFNLLPNLGTP [RPN8], which protein stability index is on record?
Answer: 3.29 ± 0.089

Question: With LGKYDLTVIEKLDSKKI [SRP68] as the sequence, how does the protein stability index read?
Answer: 2.86 ± 0.23

Question: For LGMLDDNKMDSVKEDVK [SMC4], which protein stability index is on record?
Answer: 2.61 ± 0.13

Question: With LGMMYEQKLIDQHVINI [YCS4] as the sequence, how does the protein stability index read?
Answer: 2.28 ± 0.051

Question: For LGQIGACHVEVPYVLMG [COB], which protein stability index is on record?
Answer: 2.01 ± 0.066

Question: Which protein stability index does the source give for LGRLSVRELVEKIDGMD [RPC82] here?
Answer: 3.4 ± 0.26

Question: With LGSDSSDGHNSEKKDTD [SRB4] as the sequence, how does the protein stability index read?
Answer: 2.02 ± 0.2

Question: Which protein stability index does the source give for LGTTEGDIKVLDSNFNL [RPN14] here?
Answer: 3.11 ± 0.098

Question: For LGYNFDGSAIEDDDIRS [SNF5], which protein stability index is on record?
Answer: 3.26 ± 0.072

Question: Which protein stability index does the source give for LHIHLNQILQTEIENYL [YDL116W/NUP84] here?
Answer: 2.15 ± 0.042

Question: With LHLDYNFNLKPTKTLTT [PRP8] as the sequence, how does the protein stability index read?
Answer: 2.7 ± 0.037

Question: Which protein stability index does the source give for LHTARKILVLTGAGVST [SIR2] here?
Answer: 1.56 ± 0.054

Question: For LHVPNLQPPKTSSRGRD [SMC4], which protein stability index is on record?
Answer: 2.52 ± 0.043

Question: For LIAHQRSAWNNNNDNDA [GRR1], which protein stability index is on record?
Answer: 2.65 ± 0.039

Question: With LIDSLENHLLVMKQVET [PRP28] as the sequence, how does the protein stability index read?
Answer: 2.19 ± 0.073

Question: Which protein stability index does the source give for LIECLLSKVAALSGNEG [RPB2] here?
Answer: 1.74 ± 0.098

Question: With LIELKSDLLVAPPLENE [YML103C/NUP188] as the sequence, how does the protein stability index read?
Answer: 2.18 ± 0.052

Question: For LIEYMENDAKKSKGDVD [NUT1], which protein stability index is on record?
Answer: 3.1 ± 0.079

Question: With LIGAATKFKGGKRQLMK [SEC65] as the sequence, how does the protein stability index read?
Answer: 2.03 ± 0.084

Question: Which protein stability index does the source give for LILILVISFGQPKLNPM [SWI1] here?
Answer: 1.61 ± 0.042

Question: For LIMALLQFRPAPMYILD [SMC2], which protein stability index is on record?
Answer: 1.12 ± 0.059

Question: With LIQKGYLQRGDDGESYA [CDC53] as the sequence, how does the protein stability index read?
Answer: 2.68 ± 0.1

Question: Which protein stability index does the source give for LISLKLLTFEVTQNVLG [SRB8] here?
Answer: 1.46 ± 0.072

Question: For LITQLDGFDPRGNIKVM [RPT1], which protein stability index is on record?
Answer: 3.31 ± 0.22

Question: For LITTNSVEEVILERAYK [SNF2], which protein stability index is on record?
Answer: 1.85 ± 0.063

Question: With LIVDVKQQGVGLPTDAY [RPN8] as the sequence, how does the protein stability index read?
Answer: 2.77 ± 0.25

Question: For LKAAFVAIGNTYGFLTP [RPS2], which protein stability index is on record?
Answer: 2.27 ± 0.048

Question: For LKDIEARIKEKAGVKES [RPT1], which protein stability index is on record?
Answer: 3.42 ± 0.19

Question: Which protein stability index does the source give for LKENTYVMERPKNVPTS [YDL116W/NUP84] here?
Answer: 2.13 ± 0.12

Question: Which protein stability index does the source give for LKESIKNSTSSMTAVPK [RPN1] here?
Answer: 3.31 ± 0.1

Question: For LKHKSICSCVNRGVKLE [RPP1], which protein stability index is on record?
Answer: 2.75 ± 0.051

Question: Which protein stability index does the source give for LKHLEEMGKLRERDITS [RRI2] here?
Answer: 2.58 ± 0.11

Question: For LKHTDYWYEQDSAKEWP [RPB3], which protein stability index is on record?
Answer: 3.31 ± 0.13

Question: Which protein stability index does the source give for LKIFLYLESLFAKQVDV [IRR1] here?
Answer: 2.19 ± 0.073

Question: For LKIFQEQSLEVFIFPTS [SRB8], which protein stability index is on record?
Answer: 1.96 ± 0.054

Question: For LKISLIQIFRAHLWQKI [PRP8], which protein stability index is on record?
Answer: 1.18 ± 0.055

Question: With LKKFLQEKMDPNNSRDD [IRR1] as the sequence, how does the protein stability index read?
Answer: 3.12 ± 0.068

Question: Which protein stability index does the source give for LKKKYQIILDRFAPDNQ [SIR3] here?
Answer: 1.85 ± 0.082

Question: With LKKSEEIINNKTSSQTS [YMR153W/NUP53] as the sequence, how does the protein stability index read?
Answer: 3.4 ± 0.15

Question: Which protein stability index does the source give for LKLEKLNTNRTFAQEKL [SMC3] here?
Answer: 3.08 ± 0.069

Question: Which protein stability index does the source give for LKLLKENIIQMEMIENR [FAS1] here?
Answer: 2.27 ± 0.094

Question: For LKNFLSYESLKKRKIHN [MCD1], which protein stability index is on record?
Answer: 1.46 ± 0.039

Question: Which protein stability index does the source give for LKNIMKVSDPYVPTRNT [RPN4] here?
Answer: 2.67 ± 0.18

Question: Which protein stability index does the source give for LKNKYESYDAALSLHRE [FAS2] here?
Answer: 3.134 ± 0.016

Question: Which protein stability index does the source give for LKNSIMSFIFPSYAERQ [YML031W/NDC1] here?
Answer: 2.54 ± 0.083

Question: Which protein stability index does the source give for LKQPPFQITLSSDDLQN [SSN8] here?
Answer: 2.31 ± 0.077

Question: Which protein stability index does the source give for LKRRQVIEQCYLKFIPL [SRB8] here?
Answer: 1.98 ± 0.048

Question: Which protein stability index does the source give for LKSAENSGKQQYYRGLP [SWP82] here?
Answer: 2.24 ± 0.067

Question: For LKTNFETEWNLQTLAAD [RPB11], which protein stability index is on record?
Answer: 2.91 ± 0.11

Question: With LKVDPDMLTWVDSNLPD [RPC40] as the sequence, how does the protein stability index read?
Answer: 3.13 ± 0.062

Question: For LKVNVTLDNPLLVDKDA [YJL039C/NUP192], which protein stability index is on record?
Answer: 2.93 ± 0.065

Question: For LKWKKGIRGKLVTIEGA [SMC1], which protein stability index is on record?
Answer: 3.31 ± 0.24

Question: Which protein stability index does the source give for LLAEEEELILPNTKDAM [PRP8] here?
Answer: 3.44 ± 0.072

Question: For LLARVIQMNNSLQNNLQ [SNF11], which protein stability index is on record?
Answer: 2.46 ± 0.097

Question: Which protein stability index does the source give for LLDFNTALKQYEKELMG [RPN6] here?
Answer: 3.33 ± 0.19

Question: With LLEISCKQWEISNMLKK [CSI1] as the sequence, how does the protein stability index read?
Answer: 1.58 ± 0.048

Question: For LLEQKKSIINSQRPGAR [ITC1], which protein stability index is on record?
Answer: 2.67 ± 0.2

Question: Which protein stability index does the source give for LLETITYVLNTWTNSKI [YML103C/NUP188] here?
Answer: 2.21 ± 0.05

Question: With LLFAINSYQPSPFFVLD [SMC1] as the sequence, how does the protein stability index read?
Answer: 2 ± 0.078

Question: Which protein stability index does the source give for LLFPKSTIVNLAREVPQ [DPB4] here?
Answer: 2.24 ± 0.25

Same assay, conditions: san1∆

Question: For LDIINPGSVEEVDKSKL [YDL116W/NUP84], which protein stability index is on record?
Answer: 3.24 ± 0.13
